The text below walks through data of patent publication US20030158387A1.

pIC50: −log10 of the molar value.

Experiment [1] concerns the target chemokine receptor 5 (CCR5) (human) (UniProt P51681).
In experiment [2] the target is chemokine receptor 1 (CCR1) (UniProt P56482). Put plainly: competition radioligand binding, membranes of CHO-K1 cells expressing CCR1, tracer [125I]-MIP-1 alpha.
Experiment [3] concerns the target chemokine receptor 5 (CCR5) (human) (UniProt P51681). This is another data set of the same source.
The target of experiment [4] is chemokine receptor 1 (CCR1) (UniProt P56482). Put plainly: competition radioligand binding, membranes of CHO-K1 cells expressing CCR1, tracer [125I]-MIP-1 alpha; mean ± SEM.
The target in experiment [5] is chemokine receptor 5 (CCR5) (human) (UniProt P51681). In words: competition radioligand binding, membranes of CHO-K1 cells expressing CCR5, tracer [125I]-MIP-1 beta; mean ± SEM.
The target is the same in experiment [6]. Put plainly: competition radioligand binding, membranes of CHO-K1 cells expressing CCR5, tracer [125I]-MIP-1 beta.
Experiment [7] addresses chemokine receptor 1 (CCR1) (UniProt P56482).
For experiment [8] the target is unchanged. In words: cell-based or functional assay.
Experiment [9] shares this target. The source holds these as a separate data set.

Chain of RANTES (P13501 24-91): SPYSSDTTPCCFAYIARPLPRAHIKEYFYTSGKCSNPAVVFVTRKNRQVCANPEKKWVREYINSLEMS
Chain of chemokine receptor 5 (CCR5) (human) (P51681 whole entry): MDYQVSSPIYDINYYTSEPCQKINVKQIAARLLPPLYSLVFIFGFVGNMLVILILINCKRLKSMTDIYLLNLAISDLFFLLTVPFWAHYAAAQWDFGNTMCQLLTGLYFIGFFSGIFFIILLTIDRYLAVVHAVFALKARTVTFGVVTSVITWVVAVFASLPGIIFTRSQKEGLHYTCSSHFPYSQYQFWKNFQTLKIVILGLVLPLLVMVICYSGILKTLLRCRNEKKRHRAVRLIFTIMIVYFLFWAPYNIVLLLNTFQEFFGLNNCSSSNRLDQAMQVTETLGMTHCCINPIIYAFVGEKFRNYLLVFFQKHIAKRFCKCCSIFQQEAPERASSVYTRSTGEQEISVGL

In turn, AOP-RANTES (ligand) displayed a concentration giving a half-maximal response (EC50 (read off the curve)) in [1] of 3 nM. The IC50 (read off the curve) in [2] stood at 4 nM; in [6], 0.06 nM. Moreover, the EC50 (aequorin luminescence, CHO-K1 cells expressing CCR5) in experiment [3] came to 1.94 nM. Besides, the negative logarithm of the IC50 (pIC50) is 8.57 in experiment [4] and 10.01 in experiment [5].

As for NNY-RANTES (ligand), the IC50 (read off the curve) in [2] is 4 nM; in experiment [6] it was 0.1 nM. The substance further showed an EC50 (aequorin luminescence, CHO-K1 cells expressing CCR5) in experiment [3] of 1.45 nM. For the same substance, the pIC50 in experiment [4] was 8.27; in experiment [5], 9.11.

“RANTES (from UniProt P13501 24-91) (ligand)”: the IC50 (read off the curve) in experiment [2] came out at 0.3 nM. In addition, the EC50 (aequorin luminescence, CHO-K1 cells expressing CCR1) in [7] was 8.03 nM. The EC50 of receptor activation (aequorin assay) in [8] was 6.3 nM. Further, in experiment [9], the 50% effective concentration (EC50 (read off the curve)) was 10 nM.

Usually EC50 (read off the curve) stands for the concentration at which the effect is half-maximal. A lower EC50 (read off the curve) goes with greater potency. As a reminder, the pIC50 is the IC50 on a negative log10 scale, so that one unit is a factor of ten.
